Results on one substance are retold here after publication PMC4072592.

Assay [1] deals with N-PYM-GFP (S2 cells) (Drosophila) (UniProt P82804). Briefly: co-IP; GFP-Trap beads on cytoplasmic extracts of S2 cells expressing GFP or GFP-tagged FL-, ΔC- or N-PYM, native conditions; blots of Mago and Y14 quantified by densitometry, coIP efficiency as percent of the GFP enrichment.
The target in assay [2] is ΔC-PYM-GFP (S2 cells) (Drosophila). In words: co-IP + cross-linking; as the native GFP-Trap IP from S2 cell extracts, but extracts cross-linked with 1 mM DSP for 1 h at 4°C before the IP; blots quantified by densitometry.
Sequence of ΔC-PYM-GFP (S2 cells) (Drosophila) (P82804 whole entry, stated change not applied): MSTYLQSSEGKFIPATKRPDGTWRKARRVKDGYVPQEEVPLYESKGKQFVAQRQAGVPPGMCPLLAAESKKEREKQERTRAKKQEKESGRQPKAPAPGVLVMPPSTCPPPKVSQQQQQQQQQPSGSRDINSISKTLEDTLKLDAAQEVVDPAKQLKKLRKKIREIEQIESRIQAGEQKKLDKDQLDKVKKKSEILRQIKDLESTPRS
The target of assay [3] is N-PYM-GFP (S2 cells) (Drosophila) (UniProt P82804). The assay is described as above.

Sequence of Y14-Mago heterodimer, endogenous in S2 cells (Q9V535 whole entry): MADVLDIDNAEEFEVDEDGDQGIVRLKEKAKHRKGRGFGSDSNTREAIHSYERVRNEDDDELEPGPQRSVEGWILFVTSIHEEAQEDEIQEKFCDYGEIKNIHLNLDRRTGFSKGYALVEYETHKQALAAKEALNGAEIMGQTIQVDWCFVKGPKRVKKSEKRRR
Sequence of Y14-Mago heterodimer, endogenous in S2 cells (P49028 whole entry): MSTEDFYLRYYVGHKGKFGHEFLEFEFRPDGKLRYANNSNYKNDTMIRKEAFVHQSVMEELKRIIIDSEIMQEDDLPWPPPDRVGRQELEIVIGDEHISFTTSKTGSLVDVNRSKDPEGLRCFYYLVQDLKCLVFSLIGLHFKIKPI
Sequence of N-PYM-GFP (S2 cells) (Drosophila) (P82804 whole entry): as the sequence (P82804 whole entry, stated change not applied) above

As to “Y14-Mago heterodimer, endogenous in S2 cells (from UniProt Q9V535 1-165; P49028 1-147) (complex)”, the coIP efficiency of Mago (percent of the GFP enrichment), native in assay [1] came to 0.92%. For the same substance, in assay [2], the coIP efficiency of Mago (percent of the GFP enrichment), DSP cross-linked was determined as 98.9% and the fold increase of binding upon DSP treatment against native was determined as 3.6 fold. In addition, the coIP efficiency of Mago (percent of the GFP enrichment), DSP cross-linked in assay [3] was 84.9%.
